Source: paper PMC4141501
Like-named read-outs stand apart in the source and are kept apart here.

Key:
[1] = biological target: human EWI2 wild-type with palmitate-free cytoplasmic cysteines (after hydroxylamine or 2BP) (human) (UniProt Q969P0); assay: cross-linking
[2] = biological target: human EWI2 wild-type with palmitate-free cytoplasmic cysteines (after hydroxylamine or 2BP) (human) (UniProt Q969P0); assay: cross-linking; remark: listed apart in the source

percent of EWI2 molecules dimerized [1]: 11% | stoichiometry N [1]: 2 | percent of EWI2 molecules dimerized [2]: 78% | stoichiometry N [2]: 2
Substance: human EWI2 wild-type with palmitate-free cytoplasmic cysteines (after hydroxylamine or 2BP) (from UniProt Q969P0 28-613) (natural protein)
